In assay [1] the target is T1, human CD137 protein (direct binding assay) (human, UniProt Q07011 24-186, limits assumed).
T1 construct: Soluble CD137 protein titrated from 3 uM in the fluorescence polarisation assay; also called hCD137; TNFRSF9
Put plainly: FP direct binding. Here is the method:
Affinity of the peptides of the invention for human CD137 (Ki) was determined using a fluorescence polarisation assay, in accordance with the methods disclosed in WO 2016/067035. […] CD137 protein was titrated starting at 3 μM in the same assay buffer as the peptide to assay 1 nM peptide in a total volume of 25 μL in black walled and bottomed low bind low volume 384 well plates. […] The concentrations of CD137 protein were 1 in 2 serial dilutions to give 12 different concentrations starting at 3 μM. Measurements were conducted on a BMG PHERAstar FS equipped with an FP 485 520 520 optic module at 25° C. with 200 flashes per well and a positioning delay of 0.1 second. Alternatively, the measurements were performed using Envision (PerkinElmer) equipped with FITC FP Dual Enh mirror, set to 30 flashes. Each well was measured every 5 minutes for 60 minutes. The gain used for analysis was determined for each tracer at the end of the 60 minutes where there was no protein in the well. The mP were fit to a standard 1:1 binding model with a quadratic equation to generate a Kd value.

For assay [2], the target named is CD137 on Jurkat reporter cells (Promega CD137 luciferase reporter assay) (UniProt Q07011 24-255, limits assumed). The assay is described as follows: cell-based or functional assay.
Chain of CD137 on Jurkat reporter cells (Promega CD137 luciferase reporter assay) (Q07011 24-255 limits assumed): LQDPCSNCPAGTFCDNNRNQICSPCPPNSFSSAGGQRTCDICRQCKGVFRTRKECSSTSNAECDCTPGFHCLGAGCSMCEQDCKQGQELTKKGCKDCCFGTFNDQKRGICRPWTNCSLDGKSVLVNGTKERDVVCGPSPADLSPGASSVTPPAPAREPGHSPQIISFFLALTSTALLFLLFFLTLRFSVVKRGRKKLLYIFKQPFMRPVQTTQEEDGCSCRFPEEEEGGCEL
For assay [3], the target named is T2, Recombinant human CD137 homotrimer (R&D systems), biotinylated (human, UniProt Q07011 24-186, limits assumed, biotinylated with EZ-Link Sulfo-NHS-LC-LC-Biotin).
T2 construct: also called biotinylated CD137
The assay is described as follows: SPR (Biacore T200), biotinylated CD137 on streptavidin. How it is done: (§1) Biacore experiments were performed to determine kₐ (M⁻¹s⁻¹), kd (s⁻¹), KD (nM) values of peptides binding to human CD137 protein. […] The protein was desalted to remove uncoupled biotin using spin columns into PBS.
(§2) For analysis of binding, a Biacore T200 instrument was used utilising a XanTec CMD500D chip. Streptavidin was immobilized on the chip using standard amine-coupling chemistry at 25° C. with HBS-N (10 mM HEPES, 0.15 M NaCl, pH 7.4) as the running buffer. Briefly, the carboxymethyl dextran surface was activated with a 7 min injection of a 1:1 ratio of 0.4 M 1-ethyl-3-(3-dimethylaminopropyl) carbodiimide hydrochloride (EDC)/0.1 M N-hydroxy succinimide (NHS) at a flow rate of 10 μl/min. For capture of streptavidin, the protein was diluted to 0.2 mg/ml in 10 mM sodium acetate (pH 4.5) and captured by injecting 120 μl of onto the activated chip surface. Residual activated groups were blocked with a 7 min injection of 1 M ethanolamine (pH 8.5) and biotinylated CD137 captured to a level of 800-1800 RU. Buffer was changed to PBS/0.05% Tween 20 and a dilution series of the peptides was prepared in this buffer with a final DMSO concentration of 0.5%. The top peptide concentration was 500 nM or 10 μM with 6 further 3-fold (500 nm), or 2-fold (10 μM) dilutions in PBS/0.05% Tween 20. The SPR analysis was run at 25° C. at a flow rate of 90 μl/min with 60 seconds association and 100-600 seconds dissociation. After each cycle, a regeneration step (10 μl of 10 mM glycine pH 2) was employed. Data were corrected for DMSO excluded volume effects. All data were double-referenced for blank injections and reference surface using standard processing procedures and data processing and kinetic fitting were performed using Scrubber software, version 2.0c (BioLogic Software). Data were fitted using mass transport model allowing for mass transport effects where appropriate.

In assay [4] the target is T2, Recombinant human CD137 homotrimer (R&D …). Put plainly: SPR (Biacore T200), biotinylated CD137 on streptavidin (n = 2). How it is done:
as §1
as §2, with “The SPR analysis was run at 25° C. at a flow rate of 90 μl/min with 60 seconds association and 100-600 seconds dissociation. After each cycle, a regeneration step (10 μl of 10 mM glycine pH 2) was employed. Data were corrected for DMSO excluded volume effects. All data were double-referenced for blank injections and reference surface using standard processing procedures and data processing and kinetic fitting were performed using Scrubber software, version 2.0c (BioLogic Software). Data were fitted using mass transport model allowing for mass transport effects where appropriate.” left out
For orientation: SPR reads the build-up and loss of mass on a sensor chip optically.

Starred links: 1 amine or outer side, 2 acyl side, 3 side chain; linkers in the order of their positions; H or OH if unused. Positions of bridges follow the written chain, without caps; N, C: chain ends. Non-standard residues stand in square brackets, D forms with d. Primed or numbered codes have the meaning given here. No end group written: not given here. TATA′ = 1,3,5-triacryloylhexahydro-1,3,5-triazine scaffold bound to the three cysteines; TATA = O=C(CC[*:1])N1CN(C(=O)CC[*:2])CN(C(=O)CC[*:3])C1; Phe(4-Me) = Cc1ccc(C[C@H](N)C(=O)O)cc1; Ser(ΨH,HPro) = O=C(O)[C@@H]1COCN1; Nle = CCCC[C@H](N)C(=O)O; PEG3′ = not defined here; Ac5c = NC1(C(=O)O)CCCC1 Where only a bound is given, the exact number is not on record here.

Data on eleven molecules can be found in patent US20220213145A1 (Bicycle, published 2022).

As a reminder, the Kd is the equilibrium constant for the complex coming apart. Molecule ACIEEGQYCFADPYXCA ([PEG3]ACIEEGQYCFADPY[tBuAla]CA; fluorescein-labelled; cyclised on TATA, also called [PEG3]-(74-01-04) tBuAla12) [BCY7210] came in with a Kd in assay [1] of 0.07 µM. For ACIEEGQYCFADPYMCA (linker 2-9-16 via TATA) [BCY592], the “IC50 (% inhibition of CD137L-induced NF-kB luciferase activity in CD137 Jurkat reporter cells)” value in assay [2] turned out to be 3.96 µM. As for Ac-ACI[Ser(ΨH,HPro)]EGQYCFADPY[Nle]CA (linker 2-9-16 via TATA′, also called Ac-(74-01-04) Oxa2 Nle12) [BCY7958], the Kd in assay [3] amounted to 0.02 µM. On the same count and under the same terms, the value for Ac-ACIEEGQ[Phe(4-Me)]CFADPY[Nle]CA (linker 2-9-16 via TATA, also called Ac-(74-01-04) 4MePhe6 Nle12) [BCY8670] was 1 µM. Take Ac-ACIEE[Ac5c]QYCFADPY[Nle]CA (linker 2-9-16 via TATA, also called Ac-(74-01-04) Ac5c4 Nle12) [BCY8665]: in assay [4], the Kd is 0.2 µM. On to Ac-AC[Ac5c]EEGQYCFADPY[Nle]CA (linker 2-9-16 via TATA, also called Ac-(74-01-04) Ac5c1 Nle12) [BCY8658], for which the Kd in assay [3] came out at 0.2 µM.

B1: BCY7166 (peptide)
peptide: [PEG3′]ACIEE[dF]QYCFADPY[Nle]CA
modifications: linker 3-10-17 via TATA; also: fluorescein-labelled
notes: also called [PEG3]-(74-01-04) D-Phe4 Nle12
Molecule B1 gave an equilibrium dissociation constant (Kd) in assay [1] of 0.01 µM.

B2: BCY7290 (peptide)
peptide: [PEG3′]ACIEEGQYCFAAPY[Nle]CA
modifications: linker 3-10-17 via TATA; also: fluorescein-labelled
notes: also called [PEG3]-(74-01-04) Ala9 Nle12
Regarding B2, the Kd in assay [1] is more than 3 µM.

B3: BCY7961 (peptide)
peptide: Ac-ACIPE[dA]PYCFADPY[Nle]CA
modifications: linker 2-9-16 via TATA′
notes: also called Ac-(74-01-04) Pro2 DAla4 Pro5 Nle12
For the molecule B3, the Kd in assay [3] is 0.01 µM.

On to ACIEEGQYCFADPYXCA (ACIEEGQYCF[dA]DPY[Nle]CA; cyclised on TATA, also called A-(74-01-04)-A D-Ala8 Nle12) [BCY8217], for which, in assay [3], the Kd was determined as 0.5 µM. As for ACIEEGQYCFXDPYXCA ([Ac]ACIEEGQYCF[Abu]DPY[Nle]CA; cyclised on TATA, also called Ac-(74-01-04) Abu8 Nle12) [BCY8676], the Kd in assay [3] was found to be 1 µM.
